# According to patent US20090142280A1:
# What was measured:
# [1] = molecular target: oligopeptide-10 (HB64), …-NH2; test: cell-based or functional assay
# [2] = molecular target: LL-37 (…) (human); test: cell-based or functional assay
# [3] = tested on: LL-37 (LLGDFFRKSKEKIGKEFKRIVQRIKDFLRNLVPRTES)
# [4] = tested on: T1, oligopeptide-10 (HB64), FAKALKALLKALKAL-NH2
# T1 sequence: FAKALKALLKALKAL
# [5] = molecular target: HB1345, decanoyl-KFKWPW-NH2; test: cell-based or functional assay
# [6] = molecular target: hexapeptide-21 (HB168), FALLKL-NH2; test: cell-based or functional assay
substance,measurement,setting,value
elastase (Sigma-Aldrich) (enzyme),"Survival of peptide (1 mg/mL) with elastase 25 µg/mL, no inhibitor, LC/MS, Expt. 22",[1],< 1 h
kallikrein (Sigma-Aldrich) (enzyme),"Survival of peptide (1 mg/mL) with kallikrein 22 µg/mL, no inhibitor, LC/MS, Expt. 41",[2],< 4 h
same,"Survival of peptide (1 mg/mL) with kallikrein 22 µg/mL, no inhibitor, LC/MS, Expt. 47",[2],< 4 h
same,"Survival of peptide (1 mg/mL) with kallikrein 22 µg/mL, no inhibitor, LC/MS, Expt. 49",[2],< 1 h
same,"Survival of peptide (1 mg/mL) with kallikrein 22 µg/mL, no inhibitor, LC/MS, Expt. 55",[2],< 1 h
same,"Survival of peptide (1 mg/mL) with kallikrein 25 µg/mL, no inhibitor, LC/MS, Expt. 27",[1],< 24 h
plasmin (Sigma-Aldrich),TIC trace and mass spectrum (LC/MS) after 1-hour incubation,[3],the molecular weight of parent peptide LL-37 was undetectable
same,TIC and XIC traces (LC/MS) after a 4-hour exposure,[4],"while most of the HB64 peptide was degraded, some parent peptide could still be detected"
trypsin (Sigma-Aldrich) (enzyme),"Survival of peptide (1 mg/mL) with trypsin 25 µg/mL, no inhibitor, LC/MS, Expt. 4",[1],< 1 h
same,"Survival of peptide (1 mg/mL) with trypsin 25 µg/mL, no inhibitor, LC/MS, Expt. 10",[1],< 1 h
same,"Survival of peptide (1 mg/mL) with trypsin 25 µg/mL, no inhibitor, LC/MS, Expt. 12",[1],< 1 h
same,"Survival of peptide (1 mg/mL) with trypsin 25 µg/mL, no inhibitor, LC/MS, Expt. 8",[5],< 1 h
same,"Survival of peptide (1 mg/mL) with trypsin 25 µg/mL, no inhibitor, LC/MS, Expt. 6",[6],< 1 h
chymotrypsin (Sigma-Aldrich) (enzyme),"Survival of peptide (1 mg/mL) with chymotrypsin 22 µg/mL, no inhibitor, LC/MS, Expt. 39",[2],< 1 h
same,"Survival of peptide (1 mg/mL) with chymotrypsin 25 µg/mL, no inhibitor, LC/MS, Expt. 34",[1],< 1 h
plasmin (Sigma-Aldrich) (enzyme),"Survival of peptide (1 mg/mL) with plasmin 22 µg/mL, no inhibitor, LC/MS, Expt. 37",[2],< 1 h
same,"Survival of peptide (1 mg/mL) with plasmin 22 µg/mL, no inhibitor, LC/MS, Expt. 38",[2],< 45 min
same,"Survival of peptide (1 mg/mL) with plasmin 20 µg/mL, no inhibitor, LC/MS, Expt. 45",[1],< 4 h
same,"Survival of peptide (1 mg/mL) with plasmin 25 µg/mL, no inhibitor, LC/MS, Expt. 25",[1],< 4 h
same,"Survival of peptide (1 mg/mL) with plasmin 25 µg/mL, no inhibitor, LC/MS, Expt. 30",[1],< 6 h
same,"Survival of peptide (1 mg/mL) with plasmin 46 µg/mL, no inhibitor, LC/MS, Expt. 32",[1],< 4 h
trypsin (Sigma-Aldrich),"TIC traces (LC/MS) of peptide degradation at time zero, 1 hour and 23 hours",[4],"the parent peak (represents the full-length, non-degraded peptide) in the TIC traces was reduced over time and peaks for various breakdown products increased in intensity over time"
urokinase (enzyme),"Survival of peptide (1 mg/mL) with urokinase 22 µg/mL, no inhibitor, LC/MS, Expt. 51",[2],< 24 h
same,"Survival of peptide (1 mg/mL) with urokinase 22 µg/mL, no inhibitor, LC/MS, Expt. 53",[2],< 24 h
